Assay results taken from article PMC4484599.

Molecular target: Sp-1 human recombinant protein (Promega) (Homo sapiens, UniProt P08047 1-785)
Assay: EMSA

Sequence of Sp-1 human recombinant protein (Promega) (P08047 whole entry): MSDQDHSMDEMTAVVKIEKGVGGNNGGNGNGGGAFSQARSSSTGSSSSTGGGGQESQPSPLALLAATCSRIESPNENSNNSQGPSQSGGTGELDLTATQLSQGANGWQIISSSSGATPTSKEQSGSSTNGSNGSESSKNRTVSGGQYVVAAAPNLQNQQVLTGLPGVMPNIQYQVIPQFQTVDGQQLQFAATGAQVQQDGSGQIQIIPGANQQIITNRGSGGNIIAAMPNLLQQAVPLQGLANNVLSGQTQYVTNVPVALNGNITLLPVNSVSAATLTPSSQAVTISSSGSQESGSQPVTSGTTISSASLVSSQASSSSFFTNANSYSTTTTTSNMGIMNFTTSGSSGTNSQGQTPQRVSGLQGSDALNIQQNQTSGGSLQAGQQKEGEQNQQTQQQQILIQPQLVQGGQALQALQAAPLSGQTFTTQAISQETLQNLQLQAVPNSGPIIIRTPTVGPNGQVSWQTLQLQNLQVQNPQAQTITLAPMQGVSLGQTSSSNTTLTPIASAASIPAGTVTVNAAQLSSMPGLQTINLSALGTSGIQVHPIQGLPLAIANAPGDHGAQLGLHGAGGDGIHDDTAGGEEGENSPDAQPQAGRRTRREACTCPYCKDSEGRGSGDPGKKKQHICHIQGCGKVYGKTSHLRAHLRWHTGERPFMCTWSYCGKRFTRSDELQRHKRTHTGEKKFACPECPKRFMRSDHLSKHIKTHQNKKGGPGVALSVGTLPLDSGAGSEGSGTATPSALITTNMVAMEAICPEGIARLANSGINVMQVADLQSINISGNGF

B1: Sp-1 probe (ER alpha promoter) (dsDNA)
DNA 1: TCGTGCGCCCCCGCCCCCTGGCCGTG
DNA 2: CACGGCCAGGGGGCGGGGGCGCACGA
binding result: binds
